B2: STK4 (residues 1–487) K59R (enzyme, human, UniProt Q13043 1-487, looked up)
chain: METVQLRNPPRRQLKKLDEDSLTKQPEEVFDVLEKLGEGSYGSVYKAIHKETGQIVAIRQVPVESDLQEIIKEISIMQQCDSPHVVKYYGSYFKNTDLWIVMEYCGAGSVSDIIRLRNKTLTEDEIATILQSTLKGLEYLHFMRKIHRDIKAGNILLNTEGHAKLADFGVAGQLTDTMAKRNTVIGTPFWMAPEVIQEIGYNCVADIWSLGITAIEMAEGKPPYADIHPMRAIFMIPTNPPPTFRKPELWSDNFTDFVKQCLVKSPEQRATATQLLQHPFVRSAKGVSILRDLINEAMDVKLKRQESQQREVDQDDEENSEEDEMDSGTMVRAVGDEMGTVRVASTMTDGANTMIEHDDTLPSQLGTMVINAEDEEEEGTMKRRDETMQPAKPSFLEYFEQKEKENQINSFGKSVPGPLKNSSDWKIPQDGDYEFLKSWTVEDLQKRLLALDPMMEQEIEEIRQKYQSKRQPILDAIEAKKRRQQNF
notes: The tag could be cut by HRV 3C protease 'if desired'; also called kinase-dead full-length STK4; MST1; source: E. coli BL21 (DE3), purified (Ni-NTA, SEC)
B6: HOIP (residues 697–1072) (domain or fragment, UniProt Q96EP0 697-1072, looked up)
chain: QECAVCGWALPHNRMQALTSCECTICPDCFRQHFTIALKEKHITDMVCPACGRPDLTDDTQLLSYFSTLDIQLRESLEPDAYALFHKKLTEGVLMRDPKFLWCAQCSFGFIYEREQLEATCPQCHQTFCVRCKRQWEEQHRGRSCEDFQNWKRMNDPEYQAQGLAMYLQENGIDCPKCKFSYALARGGCMHFHCTQCRHQFCSGCYNAFYAKNKCPEPNCRVKKSLHGHHPRDCLFYLRDWTALRLQKLLQDNNVMFNTEPPAGARAVPGGGCRVIEQKEVPNGLRDEACGKETPAGYAGLCQAHYKEYLVSLINAHSLDPATLYEVEELETATERYLHVRPQPLAGEDPPAYQARLLQKLTEEVPLGQSIPRRRK
notes: also called RING1-IBR-RING2-LDD; HOIP RBR-LDD; source: E. coli BL21 (DE3), purified (glutathione resin, SEC)

Assays:
M1-8Ub = biological target: T1, M1-8Ub (UniProt P0CG48 1-76; P0CG48 1-76; P0CG48 1-76; P0CG48 1-76; P0CG48 1-76; P0CG48 1-76; …); experiment: SEC; each protein alone and the mixture at matched concentrations on Superdex 200 Increase 10/300 GL or Superdex 75 Increase 10/300 GL; a forward shift or increase of the peak read qualitatively; fractions on SDS-PAGE (Fig. 1c: 20 μM HOIP RING2-LDD, 30 μM STK4 KD, Superdex 75 Increase); conditions: both partners purified
T1 construct: ubiquitin, unit 1 of 8, units joined head to tail by peptide bonds (M1-linked); ubiquitin, unit 2 of 8; ubiquitin, unit 3 of 8; ubiquitin, unit 4 of 8; ubiquitin, unit 5 of 8; ubiquitin, unit 6 of 8; ubiquitin, unit 7 of 8; ubiquitin, unit 8 of 8; also called linear octa-ubiquitin; polyubiquitin chain; source: E. coli BL21 (DE3), purified

HOIP (residues 480–1072) = biological target: T2, HOIP (residues 480–1072) (UniProt Q96EP0 480-1072); experiment: as above; conditions: both partners purified
T2 construct: source: E. coli BL21 (DE3), purified (glutathione resin, SEC)
T2 sequence (looked up): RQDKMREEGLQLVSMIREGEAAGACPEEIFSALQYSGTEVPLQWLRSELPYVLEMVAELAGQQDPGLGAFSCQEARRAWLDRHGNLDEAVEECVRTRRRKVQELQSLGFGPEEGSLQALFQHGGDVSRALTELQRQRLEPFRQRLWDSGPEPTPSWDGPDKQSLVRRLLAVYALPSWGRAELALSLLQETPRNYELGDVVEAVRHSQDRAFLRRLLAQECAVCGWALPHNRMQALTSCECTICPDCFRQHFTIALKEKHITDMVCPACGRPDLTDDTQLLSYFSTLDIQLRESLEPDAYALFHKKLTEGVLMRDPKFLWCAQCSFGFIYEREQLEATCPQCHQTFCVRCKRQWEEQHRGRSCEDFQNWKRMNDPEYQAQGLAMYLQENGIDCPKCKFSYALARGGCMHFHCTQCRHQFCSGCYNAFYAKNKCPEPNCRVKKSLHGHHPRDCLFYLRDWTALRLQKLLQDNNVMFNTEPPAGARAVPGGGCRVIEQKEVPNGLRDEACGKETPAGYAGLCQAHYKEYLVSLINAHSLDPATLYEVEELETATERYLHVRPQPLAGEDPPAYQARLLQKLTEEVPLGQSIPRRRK

UBE2L3 = biological target: T3, UBE2L3 (human, UniProt P68036 1-154); experiment: as above; conditions: both partners purified
T3 construct: UBE2L3 (E2), human; source: E. coli, purified

[1] = biological target: the molecule itself; experiment: AUC; sedimentation velocity, 42,000 rpm, 20 °C, c(s) distribution (SEDFIT); mixtures of HOIP RING2-LDD with STK4 KD at molar ratios 1:1 or 1:5
linear di-Ub (M1-2Ub) = biological target: T4, linear di-Ub (M1-2Ub) (UniProt P0CG48 1-76; P0CG48 1-76); experiment: SEC; each protein alone and the mixture at matched concentrations on Superdex 200 Increase 10/300 GL or Superdex 75 Increase 10/300 GL; a forward shift or increase of the peak read qualitatively; fractions on SDS-PAGE (Fig. 1c: 20 μM HOIP RING2-LDD, 30 μM STK4 KD, Superdex 75 Increase); conditions: both partners purified
T4 construct: ubiquitin, unit 1 of 2, units joined head to tail by peptide bonds (M1-linked); ubiquitin, unit 2 of 2; source: E. coli BL21 (DE3), purified

linear tetra-Ub (M1-4Ub) = biological target: T5, linear tetra-Ub (M1-4Ub) (UniProt P0CG48 1-76; P0CG48 1-76; P0CG48 1-76; P0CG48 1-76); experiment: as above; conditions: both partners purified
T5 construct: ubiquitin, unit 1 of 4, units joined head to tail by peptide bonds (M1-linked); ubiquitin, unit 2 of 4; ubiquitin, unit 3 of 4; ubiquitin, unit 4 of 4; source: E. coli BL21 (DE3), purified

[2] = biological target: B2; experiment: ITC; MicroCal PEAQ-ITC, 25 °C; 20 mM Tris-HCl pH 7.5, 100 mM NaCl, 1 mM DTT; ~50 μM in the cell, ~500 μM in the syringe; one-site binding model; conditions: both partners purified
HOIP (residues 697–1072) = biological target: B6; experiment: SEC; each protein alone and the mixture at matched concentrations on Superdex 200 Increase 10/300 GL or Superdex 75 Increase 10/300 GL; a forward shift or increase of the peak read qualitatively; fractions on SDS-PAGE (Fig. 1c: 20 μM HOIP RING2-LDD, 30 μM STK4 KD, Superdex 75 Increase); conditions: both partners purified

T3 sequence (P68036 whole entry): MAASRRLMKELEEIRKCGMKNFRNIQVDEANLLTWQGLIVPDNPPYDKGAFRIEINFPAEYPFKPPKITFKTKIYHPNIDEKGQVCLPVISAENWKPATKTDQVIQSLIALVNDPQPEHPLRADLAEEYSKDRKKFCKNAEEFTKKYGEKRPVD

B1: HOIP (residues 697–852) (domain or fragment, UniProt Q96EP0 697-852, looked up)
chain: QECAVCGWALPHNRMQALTSCECTICPDCFRQHFTIALKEKHITDMVCPACGRPDLTDDTQLLSYFSTLDIQLRESLEPDAYALFHKKLTEGVLMRDPKFLWCAQCSFGFIYEREQLEATCPQCHQTFCVRCKRQWEEQHRGRSCEDFQNWKRMND
notes: The limits are printed for the M1-8Ub experiment; for the STK4 experiment the text says only 'the RING1-IBR region of HOIP'; also called HOIP RING1-IBR; RING1-IBR region; source: E. coli BL21 (DE3), purified (glutathione resin, SEC)
M1-8Ub
  binding result: binds

## B2
HOIP (residues 480–1072)
  binding result: binds

B3: HOIP RING1 (residues 697–793) T731A (domain or fragment, UniProt Q96EP0 697-793, looked up)
chain: QECAVCGWALPHNRMQALTSCECTICPDCFRQHFAIALKEKHITDMVCPACGRPDLTDDTQLLSYFSTLDIQLRESLEPDAYALFHKKLTEGVLMRD
notes: source: E. coli BL21 (DE3), purified
UBE2L3
  binding result: binds

B4: STK4 (residues 11–326) K59R (domain or fragment, human, UniProt Q13043 11-326, looked up)
chain: RRQLKKLDEDSLTKQPEEVFDVLEKLGEGSYGSVYKAIHKETGQIVAIRQVPVESDLQEIIKEISIMQQCDSPHVVKYYGSYFKNTDLWIVMEYCGAGSVSDIIRLRNKTLTEDEIATILQSTLKGLEYLHFMRKIHRDIKAGNILLNTEGHAKLADFGVAGQLTDTMAKRNTVIGTPFWMAPEVIQEIGYNCVADIWSLGITAIEMAEGKPPYADIHPMRAIFMIPTNPPPTFRKPELWSDNFTDFVKQCLVKSPEQRATATQLLQHPFVRSAKGVSILRDLINEAMDVKLKRQESQQREVDQDDEENSEEDEMD
notes: Monomer-dimer equilibrium in solution; dimer in the crystal; also called STK4 KD; source: E. coli BL21 (DE3), purified (Ni-NTA, SEC)
[1]
  binding result: binds

B5: HOIP (residues 697–1072) S1066E (domain or fragment, UniProt Q96EP0 697-1072, looked up)
chain: QECAVCGWALPHNRMQALTSCECTICPDCFRQHFTIALKEKHITDMVCPACGRPDLTDDTQLLSYFSTLDIQLRESLEPDAYALFHKKLTEGVLMRDPKFLWCAQCSFGFIYEREQLEATCPQCHQTFCVRCKRQWEEQHRGRSCEDFQNWKRMNDPEYQAQGLAMYLQENGIDCPKCKFSYALARGGCMHFHCTQCRHQFCSGCYNAFYAKNKCPEPNCRVKKSLHGHHPRDCLFYLRDWTALRLQKLLQDNNVMFNTEPPAGARAVPGGGCRVIEQKEVPNGLRDEACGKETPAGYAGLCQAHYKEYLVSLINAHSLDPATLYEVEELETATERYLHVRPQPLAGEDPPAYQARLLQKLTEEVPLGQEIPRRRK
notes: also called phosphomimic S1066E mutant; source: E. coli BL21 (DE3), purified
Linear di-Ub (M1-2Ub)
  binding result: binds
Linear tetra-Ub (M1-4Ub)
  binding result: binds

## B6
[2]
  Kd: ~102 µM

B7: STK4 (residues 1–326) K59R (domain or fragment, human, UniProt Q13043 1-326, looked up)
chain: METVQLRNPPRRQLKKLDEDSLTKQPEEVFDVLEKLGEGSYGSVYKAIHKETGQIVAIRQVPVESDLQEIIKEISIMQQCDSPHVVKYYGSYFKNTDLWIVMEYCGAGSVSDIIRLRNKTLTEDEIATILQSTLKGLEYLHFMRKIHRDIKAGNILLNTEGHAKLADFGVAGQLTDTMAKRNTVIGTPFWMAPEVIQEIGYNCVADIWSLGITAIEMAEGKPPYADIHPMRAIFMIPTNPPPTFRKPELWSDNFTDFVKQCLVKSPEQRATATQLLQHPFVRSAKGVSILRDLINEAMDVKLKRQESQQREVDQDDEENSEEDEMD
notes: also called KD; source: E. coli BL21 (DE3), purified (Ni-NTA, SEC)
HOIP (residues 697–1072)
  binding result: binds

Reference: PMC12441119 (Cell Discovery, 2025)
